B1: Erythropoietin receptor (Homo sapiens), P19235 (parent)
chain: MDHLGASLWPQVGSLCLLLAGAAWAPPPNLPDPKFESKAALLAARGPEELLCFTERLEDLVCFWEEAASAGVGPGNYSFSYQLEDEPWKLCRLHQAPTARGAVRFWCSLPTADTSSFVPLELRVTAASGAPRYHRVIHINEVVLLDAPVGLVARLADESGHVVLRWLPPPETPMTSHIRYEVDVSAGNGAGSVQRVEILEGRTECVLSNLRGRTRYTFAVRARMAEPSFGGFWSAWSEPVSLLTPSDLDPLILTLSLILVVILVLLTVLALLSHRRALKQKIWPGIPSPESEFEGLFTTHKGNFQLWLYQNDGCLWWSPCTPFTEDPPASLEVLSERCWGTMQAVEPGTDDEGPLLEPVGSEHAQDTYLVLDKWLLPRNPPSEDLPGPGGSVDIVAMDEGSEASSCSSALASKPSPEGASAASFEYTILDPSSQLLRPWTLCPELPPTPPHLKYLYLVVSDSGISTDYSSGDSQGAQGGLSDGPYSNPYENSLIPAAEPLPPSYVACS
partner: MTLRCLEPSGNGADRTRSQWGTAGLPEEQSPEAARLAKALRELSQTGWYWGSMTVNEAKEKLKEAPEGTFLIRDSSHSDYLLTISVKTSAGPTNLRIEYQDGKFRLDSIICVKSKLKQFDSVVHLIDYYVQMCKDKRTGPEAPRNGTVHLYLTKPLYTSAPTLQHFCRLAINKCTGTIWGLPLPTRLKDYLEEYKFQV
B2: 1-phosphatidylinositol 4,5-bisphosphate phosphodiesterase gamma-2 (Homo sapiens), P16885 (parent)
chain: MSTTVNVDSLAEYEKSQIKRALELGTVMTVFSFRKSTPERRTVQVIMETRQVAWSKTADKIEGFLDIMEIKEIRPGKNSKDFERAKAVRQKEDCCFTILYGTQFVLSTLSLAADSKEDAVNWLSGLKILHQEAMNASTPTIIESWLRKQIYSVDQTRRNSISLRELKTILPLINFKVSSAKFLKDKFVEIGAHKDELSFEQFHLFYKKLMFEQQKSILDEFKKDSSVFILGNTDRPDASAVYLHDFQRFLIHEQQEHWAQDLNKVRERMTKFIDDTMRETAEPFLFVDEFLTYLFSRENSIWDEKYDAVDMQDMNNPLSHYWISSSHNTYLTGDQLRSESSPEAYIRCLRMGCRCIELDCWDGPDGKPVIYHGWTRTTKIKFDDVVQAIKDHAFVTSSFPVILSIEEHCSVEQQRHMAKAFKEVFGDLLLTKPTEASADQLPSPSQLREKIIIKHKKLGPRGDVDVNMEDKKDEHKQQGELYMWDSIDQKWTRHYCAIADAKLSFSDDIEQTMEEEVPQDIPPTELHFGEKWFHKKVEKRTSAEKLLQEYCMETGGKDGTFLVRESETFPNDYTLSFWRSGRVQHCRIRSTMEGGTLKYYLTDNLTFSSIYALIQHYRETHLRCAEFELRLTDPVPNPNPHESKPWYYDSLSRGEAEDMLMRIPRDGAFLIRKREGSDSYAITFRARGKVKHCRINRDGRHFVLGTSAYFESLVELVSYYEKHSLYRKMRLRYPVTPELLERYNMERDINSLYDVSRMYVDPSEINPSMPQRTVKALYDYKAKRSDELSFCRGALIHNVSKEPGGWWKGDYGTRIQQYFPSNYVEDISTADFEELEKQIIEDNPLGSLCRGILDLNTYNVVKAPQGKNQKSFVFILEPKQQGDPPVEFATDRVEELFEWFQSIREITWKIDTKENNMKYWEKNQSIAIELSDLVVYCKPTSKTKDNLENPDFREIRSFVETKADSIIRQKPVDLLKYNQKGLTRVYPKGQRVDSSNYDPFRLWLCGSQMVALNFQTADKYMQMNHALFSLNGRTGYVLQPESMRTEKYDPMPPESQRKILMTLTVKVLGARHLPKLGRSIACPFVEVEICGAEYDNNKFKTTVVNDNGLSPIWAPTQEKVTFEIYDPNLAFLRFVVYEEDMFSDPNFLAHATYPIKAVKSGFRSVPLKNGYSEDIELASLLVFCEMRPVLESEEELYSSCRQLRRRQEELNNQLFLYDTHQNLRNANRDALVKEFSVNENQLQLYQEKCNKRLREKRVSNSKFYS
partner: B1 chain
B3: Erythropoietin receptor (Homo sapiens), P19235 (parent)
chain: B1 chain
partner: B2 chain
B4: Erythropoietin receptor (Homo sapiens), P19235 (parent)
chain: B1 chain
partner: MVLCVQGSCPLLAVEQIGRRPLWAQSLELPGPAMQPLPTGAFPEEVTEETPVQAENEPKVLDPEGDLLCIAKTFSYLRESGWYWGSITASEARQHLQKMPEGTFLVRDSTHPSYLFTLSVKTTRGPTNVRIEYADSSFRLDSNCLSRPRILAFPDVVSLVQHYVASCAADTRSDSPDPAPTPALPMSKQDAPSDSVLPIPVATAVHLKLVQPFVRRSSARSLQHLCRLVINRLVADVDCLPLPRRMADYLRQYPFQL

In the first test the parent is B1. The settings on record: with socs2_mouse Socs2, O35717.
As for Y426F, the “effect of a mutation on the interaction” value is reported as “decreasing interaction”.

In the next test the parent is B2. Conditions: with epor_human EPOR.
K367F: the “effect of a mutation on the interaction” value is recorded as “decreasing interaction”.

In the next test the parent is B3. Conditions: with plcg2_human PLCG2, P16885.
Y504F: the “effect of a mutation on the interaction” value is reported as “decreasing interaction”.

As for Y456F, the “effect of a mutation on the interaction” value is on record as “decreasing interaction”.

The variants in a further test derive from B4. Conditions: with cish_mouse Cish.
Consider Y426F, for which the “effect of a mutation on the interaction” value is recorded as “decreasing interaction”.

A further test covers variants of B4. The settings on record: with cish_mouse Cish. The source holds these as a separate data set.
For Y454F, the “effect of a mutation on the interaction” value was “decreasing interaction”.

The values above are taken from IntAct's records for PubMed 15644415.
